Measurements reported in doi:10.1101/2022.08.03.502284 (bioRxiv, 2022).

Target: the molecule itself
Experiment: ONE expansion microscopy of the purified protein

B1: full-length human GABAA receptor β3 subunit homopentamer (receptor)
chain: QSVNDPGNMSFVKETVDKLLKGYDIRLRPDFGGPPVCVGMNIDIASIDMVSEVNMDYTLTMYFQQYWRDKRLAYSGIPLNLTLDNRVADQLWVPDTYFLNDKKSFVHGVTVKNRMIRLHPDGTVLYGLRITTTAACMMDLRRYPLDEQNCTLEIESYGYTTDDIEFYWRGGDKAVTGVERIELPQFSIVEHRLVSRNVVFATGAYPRLSLSFRLKRNIGYFILQTYMPSILITILSWVSFWINYDASAARVALGITTVLTMTTINTHLRETLPKIPYVKAIDMYLMGCFVFVFLALLEYAFVNYIFFGRGPQRQKKLAEKTAKAKNDRSKSESNRVDAHGNILLTSLEVHNEMNEVSGGIGDTRNSAISFDNSGIQYRKQSMPREGHGRFLGDRSLPHKKTHLRRRSSQLKIKIPDLTDVNAIDRWSRIVFPFTFSLFNLVYWLYYVN
binding result: binds
